Test: yeast display, Sf9 membrane polyspecificity reagent, FACS + sequencing; frameworks hold sequencing errors
Outline: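 Polyreactivity labels are assigned by the sorting gate from which each nanobody was recovered. The gates were low and high (top ~1%), set on anti-HA fluorescence for expression and streptavidin fluorescence for reagent binding. Before sorting, galactose-induced (36–48 hours) yeast display cells were stained for 1 hour at 4 °C with 10% biotinylated, detergent-solubilized Sf9 membrane reagent.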
For “QVQLVESGGGLVQAGGSLRLSCAASGRTFSGNTMGWYRQAPGKERELVAAISSGGSRTYYADSVKGRFTISRDNAKNTVYLLMNSLKPEDTAVYYCATVSTYYHYRRYDYWGQGTQVTVSS”, the “polyreactivity (PSR sort gate)” value was “high polyreactivity”. In the case of “QVQLVESGGGLVQAGGSLRLSCAASGRTFSGYAMGWYRQAPGKEREFVAAITSSGGSTYYADSVKGRFTISRDNAKNTVYLQMNSLKPEDTAVYYCAARIRHFSVGYYYWGQGTQVTVSS”, the “polyreactivity (PSR sort gate)” value is reported as “high polyreactivity”. For “QVQLVESGGGLVQAGGSLRLSCAASGRTFSGYAMGWYRQAPGKERELVAAINYSDGSTYYADSVKGRFTISRDNAKNTVYLQMNSLKPEDTAVYYCNKVYRYVRYAYDYWGQGTQVTVSS”, the “polyreactivity (PSR sort gate)” value was “high polyreactivity”. With “QVQLVESGGGLVQAGGSLRLSCAASGRTFSGYAMGWYRQAPGKERELVAGINWSGDSTYYADSVKGRFTISRDNAKNTVYLQMNSLKPEDTAVYYCAASRSGTYDWGQGTQVTVSS” the “polyreactivity (PSR sort gate)” value was “high polyreactivity”. With “QVQLVESGGGLVQAGGSLRLSCAASGRTFSHYAMGWSRQAPGKERELVAASNTRTGTTYYADSVKGRFTISRDNAKNTVNLQMNSLKPEDTAVYYCNAVPYYSYQGWILVGDYDYWGQGTQVTVSS” the “polyreactivity (PSR sort gate)” value was “low polyreactivity”. In the case of “QVQLVESGGGLVQAGGSLRLSCAASGRTFSINAMGWYRQAPGKERELVASISSRGTRTNYADSVKGRFTISRDNAKNTVYLQMNSLKPEDTAVYYCAADRYYPYYSAWREYEYWGQGTQVTVSS”, the “polyreactivity (PSR sort gate)” value is reported as “high polyreactivity”. In the case of “QVQLVESGGGLVQAGGSLRLSCAASGRTFSIYAMGWYRQAPGKERELVASITGRGTRTYYADSVKGRFTISRDNAKNTVYLQMNSLKPEDTAVYYCNARGKVQSSYDDDYWGQGTQVTVSS”, the “polyreactivity (PSR sort gate)” value is reported as “high polyreactivity”. With “QVQLVESGGGLVQAGGSLRLSCAASGRTFSKNAMGWYRQAPGKERELVADISRRGGRTYYADSVNGRFTISRDNAKNTVYLQMNSLKPEDTAVYYCAARTYRQPYYILDYYWGQGTQVTVSS” the “polyreactivity (PSR sort gate)” value was “high polyreactivity”. With “QVQLVESGGGLVQAGGSLRLSCAASGRTFSKYAMGWYRQAPGKERELVAAITRSGSSTYYADSVKGRFTISRDNAKNTVYLQMNSLKPEDTAVYYCAADRYVRSSGSASDYGYWGQGTQVTVSS” the “polyreactivity (PSR sort gate)” value was “low polyreactivity”. For “QVQLVESGGGLVQAGGSLRLSCAASGRTFSLYAMGWYRQAPGKERELVARIRSSTRTTYADSVKGRFTISRDNAKNTVYLQMNSLKPEDTAVYYCAADSGYRYYTKSVGYDYWGQGTQVTVSS”, the “polyreactivity (PSR sort gate)” value was “high polyreactivity”. In the case of “QVQLVESGGGLVQAGGSLRLSCAASGRTFSPYAMGWYRQAPVKERELVAAITSGGRTNYADSVKGRFTISRDNAKNTVYLQMNSLKPEDTAVYYCAARSGRYRWTRFDYWGQGTQVTVSS”, the “polyreactivity (PSR sort gate)” value is reported as “low polyreactivity”. With “QVQLVESGGGLVQAGGSLRLSCAASGRTFSPYMGWYRQAPGKERELVAAISKSGGRTYYADSVKGRFTISRDNAKNTVYLQMNSLKPEDTAVYYCANTGNNYYYALYGYWGQGTQVTVSS” the “polyreactivity (PSR sort gate)” value was “low polyreactivity”. In the case of “QVQLVESGGGLVQAGGSLRLSCAASGRTFSQYAMGWYRPAPGKERELVAAITRSGSRTYYADSVKGRFTISRDNAKNTVYLQMNSLKPEDTAVYYCAADGHAGYPIDEYYYWGQGTQVTVSS”, the “polyreactivity (PSR sort gate)” value is reported as “high polyreactivity”. In the case of “QVQLVESGGGLVQAGGSLRLSCAASGRTFSQYAMGWYRQAPGKERELVAAITKNGGRTYYADSVKGRFTISRDNAKNTVYLQMNSLKPEDTAVYYCNARGGRYAGKLDYWGQGTQVTVSS”, the “polyreactivity (PSR sort gate)” value is reported as “high polyreactivity”. With “QVQLVESGGGLVQAGGSLRLSCAASGRTFSRNAMGWYRQAPGKERELVAAITSSGGSTYYADSVKGRFTISRDNAKNTVYLQMNSLKPEDTAVYYCNADATYRRGGGDYWGQGTQVTVSS” the “polyreactivity (PSR sort gate)” value was “high polyreactivity”. With “QVQLVESGGGLVQAGGSLRLSCAASGRTFSRNAMGWYRQAPGKERELVATISSSGVRTYYADSVKGRFTISRDNAKNTVYLQMNSLKPEDTAVYYCAAAWRYYSAASGYDYWGQGTQVTVSS” the “polyreactivity (PSR sort gate)” value was “low polyreactivity”. In the case of “QVQLVESGGGLVQAGGSLRLSCAASGRTFSRYAIGWYRQAPGKERELVASITSRGGSTYYADSVKGRFTISRDNAKNTVYLQMNSLKPEDTAVYYCNVKPTYSPRYWEDYWGQGTQVTVSS”, the “polyreactivity (PSR sort gate)” value is reported as “high polyreactivity”. For “QVQLVESGGGLVQAGGSLRLSCAASGRTFSRYAMGWYRQAPGKEREFVAAITWSSGGTYYADSVKGRFTISRDNAKNTVYLQMNSLKPEDTAVYYCNYLRSRYYQDYNYWGQGTQVTVSS”, the “polyreactivity (PSR sort gate)” value was “high polyreactivity”. With “QVQLVESGGGLVQAGGSLRLSCAASGRTFSRYAMGWYRQAPGKERELVAAISRSGGITYYADSVKGRFTISRDNAKNTVYLQMNSLKPEDTAVYYCAAYVRGWGGDDYWGQGTQVTVSS” the “polyreactivity (PSR sort gate)” value was “high polyreactivity”. For “QVQLVESGGGLVQAGGSLRLSCAASGRTFSSYAMGWYRQAPGKERELVAAIRVSGGITYYADSVKGRFTISRDNAKNTVYLQMNSLKPEDTAVYYCNAGVDFIGGSYLKYDYWGQGTKVTVSS”, the “polyreactivity (PSR sort gate)” value was “low polyreactivity”. In the case of “QVQLVESGGGLVQAGGSLRLSCAASGRTFSTNAMGWYSQAPGKERELVAAISARGGSTYYADSVKGRFTISRDNAKNTVYLLLTSLKPEDTAVDYCARRPGRYSYAFDYWGQGTQVTVSS”, the “polyreactivity (PSR sort gate)” value is reported as “high polyreactivity”. For “QVQLVESGGGLVQAGGSLRLSCAASGRTFSTYAMGWCRQAPGKERELVAAISRRGGSTYYADSVKGRFTISRDNAKYTVYLQMNSLKPEDTAVYYGAADSYDSDVNEYDYWGQGTQVTVSS”, the “polyreactivity (PSR sort gate)” value was “high polyreactivity”. With “QVQLVESGGGLVQAGGSLRLSCAASGRTFSTYAMGWYRQAPGKERELVARITSSGGSTYYAHSVKGRFTISRDIAKNSVYLQMNCLKPEDTAVYYCAAYAHYAQRYYYWGQGTQVTVSS” the “polyreactivity (PSR sort gate)” value was “high polyreactivity”. With “QVQLVESGGGLVQAGGSLRLSCAASGRTFSTYTMGWYRPAPGNERELVAAINWSGTSTYYADSVKGRFTISRDTAKNTVYLQMNSLKPEDTAFYYCNAGKWAYRWGYELNYWGQGTQVTVSS” the “polyreactivity (PSR sort gate)” value was “high polyreactivity”. With “QVQLVESGGGLVQAGGSLRLSCAASGRTFSVNAMGWYRQAPGKERELVAAIAWDGGSTYYADSVKGRFTISRDNAKNTVYLQMNSLKPEDTAVYYCNKDLYYAYDYWGQGTQVTVSS” the “polyreactivity (PSR sort gate)” value was “low polyreactivity”. In the case of “QVQLVESGGGLVQAGGSLRLSCAASGRTFSVNAMGWYRQAPGKERELVAAISWDGGSTYYADSVKGRFTISRDNAKNTVYLQMNSLKPEDTAVYYCNQDLYYAYDYWGQGTQVTVSS”, the “polyreactivity (PSR sort gate)” value is reported as “low polyreactivity”. For “QVQLVESGGGLVQAGGSLRLSCAASGRTFSVNAMGWYRQAPGKERELVAAITSGGSTYYADSVKGRFTISRDNAKNTVYLQMNSLKPEDTAVYYCNADLEPYDYWGQGTQVTVSS”, the “polyreactivity (PSR sort gate)” value was “low polyreactivity”. With “QVQLVESGGGLVQAGGSLRLSCAASGRTFSVNAMGWYRQAPGKERELVAAITSGGSTYYADSVKGRFTISRDNAKNTVYLQMNSLKPEDTAVYYCNAVGRLRRSRLRMDYWGQGTQVTVSS” the “polyreactivity (PSR sort gate)” value was “high polyreactivity”. In the case of “QVQLVESGGGLVQAGGSLRLSCAASGRTFSWYAMGWYRQAPGKEREFVAAITSGGSTYYADSVKGRFTISRDNAMNTVYLQMNSLKPEDTAVYYCAAYGYWGQGTQVTVSS”, the “polyreactivity (PSR sort gate)” value is reported as “high polyreactivity”. With “QVQLVESGGGLVQAGGSLRLSCAASGRTFSYNAMGWYRQAPGKERELVAAITGRGGSTYYADSVKGRFTISRDNAKHTVYLQMNSLKPEDTAVYYCNAPPGTFQWQGHSDYWGQGTQVTVSS” the “polyreactivity (PSR sort gate)” value was “low polyreactivity”. With “QVQLVESGGGLVQAGGSLRLSCAASGRTFSYNAMGWYRQAPGKERELVAAITSSGGGTSYADSVKGRFTISRDNAKNTVYLQMNSLKPEDTAVYYCNRVLPHPDGYGVGARGYWGQGTQVSVSS” the “polyreactivity (PSR sort gate)” value was “high polyreactivity”. With “QVQLVESGGGLVQAGGSLRLSCAASGRTFSYNAMGWYRQAPGTERELVAAISGGGSTDYADSVKGRFTISRDNAKNTVYLQMNSLKPEDTAVYYCAAGWYVYTFFEFYVFDGDYWGQGTQVTVSS” the “polyreactivity (PSR sort gate)” value was “low polyreactivity”. With “QVQLVESGGGLVQAGGSLRLSCAASGRTFSYSAMGWYRQAPGKERELVAAISSGGSTNYADSVKGRFTISRDNAKNTVYLQMNSLKPEDTAVYYCATSSIWGSGRVRWVTYYYWGQGTQVTVSS” the “polyreactivity (PSR sort gate)” value was “low polyreactivity”. In the case of “QVQLVESGGGLVQAGGSLRLSCAASGRTFSYSAMGWYRQAPGKERELVAAITGSGGRTYYADSVKGRFTISRDNAKNTVYLQMNSLKPEDTAVYYCAARYLYEGQLRPIRYYHYGYWGQGTQVTVSS”, the “polyreactivity (PSR sort gate)” value is reported as “high polyreactivity”. With “QVQLVESGGGLVQAGGSLRLSCAASGRTFSYYAMGCYRQAPGKERELVASISSGGSTKYADSVKGRFTISRDNAKNTVYLQMNSLKPEDTAVYYCAVTYWYGRVLYGYWGQGTQVTVSS” the “polyreactivity (PSR sort gate)” value was “high polyreactivity”. With “QVQLVESGGGLVQAGGSLRLSCAASGRTFSYYAMGWYRQAPGKERELVAAIDDNGGTTYADSVKGRFTISRDNATNTVYLQINSLKPEDTAVYYCAKRVSYFWALRRGYWGQGTKVTVSS” the “polyreactivity (PSR sort gate)” value was “high polyreactivity”. With “QVQLVESGGGLVQAGGSLRLSCAASGRTFSYYAMGWYRQAPGKERELVAAIRRSSGTTYYADSVKGRFTISSDNAKNTVYLQMNSLKPEDTAVYYCNARSRRASIKRDYWGQGTQVTLSS” the “polyreactivity (PSR sort gate)” value was “high polyreactivity”. With “QVQLVESGGGLVQAGGSLRLSCAASGRTFSYYAMGWYRQAPGKERELVAAISSGDSTYYADSVKGRFTFSRDNAMNTVYLQMNSLKPEDTAVYYCASYPSLYYTKYDYWGQGTQVTVSS” the “polyreactivity (PSR sort gate)” value was “high polyreactivity”. With “QVQLVESGGGLVQAGGSLRLSCAASGRTFSYYAMGWYRQAPGKERELVAAISSGGSTYYADSVKGRFTISRDNAKNTVYLQMNRLKPEDTAVYYCAKEYKQALGHVSFDYWGQGTQVTVSS” the “polyreactivity (PSR sort gate)” value was “low polyreactivity”. For “QVQLVESGGGLVQAGGSLRLSCAASGRTFSYYTMGRYRQAPGKERELVARISNRGTNTYYADSVKGRFTISRDHAKNSVNLQMNSLKTEDTAVFYCAKYYYTSIVGYDYWGQGTQVTVSS”, the “polyreactivity (PSR sort gate)” value was “low polyreactivity”. In the case of “QVQLVESGGGLVQAGGSLRLSCAASGRTFSYYTMGWSRQAPGKERQLVARISNRGTNTYYADSVKGRFTISRDNAKNTVYLQMNSLIPEDTGVYYCAKYYYTSIVGYDSWGQGTQVTVSS”, the “polyreactivity (PSR sort gate)” value is reported as “low polyreactivity”.
